One data set addresses CD86 (UniProt P42081 24-247). Description: strand a displacement with toehold-aided fluorescence amplification; 100 ng/mL CD86; slight fluorescence change only; 20 mM Tris-HCl, 100 mM NaCl, 10 mM KCl, 10 mM MgCl2, pH 7.5, 37 °C, 30 min. Conditions: protein: commercial; partial duplex: 15 nt strand a hybridised to 48 nt aptamer; single-stranded 5' and 3' aptamer overhangs.
Another data set addresses T1, EpCAM (UniProt P16422 24-265).
T1 sequence: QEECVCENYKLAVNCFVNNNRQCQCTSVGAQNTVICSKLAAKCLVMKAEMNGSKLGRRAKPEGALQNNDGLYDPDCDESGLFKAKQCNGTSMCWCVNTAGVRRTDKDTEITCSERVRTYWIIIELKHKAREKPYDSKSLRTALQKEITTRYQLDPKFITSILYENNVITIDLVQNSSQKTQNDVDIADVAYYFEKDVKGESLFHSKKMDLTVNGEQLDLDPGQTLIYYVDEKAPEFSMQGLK
Description: strand a displacement with toehold-aided fluorescence amplification; 30 nM aptamer/strand a, 50 ng/mL EpCAM, 10 mM Mg2+; strands b, c, d, e 100 nM; 20 mM Tris-HCl, 100 mM NaCl, 10 mM KCl, 10 mM MgCl2, pH 7.5, 37 °C, 30 min. Conditions: protein: commercial; partial duplex: 15 nt strand a hybridised to 48 nt aptamer; single-stranded 5' and 3' aptamer overhangs.

CD86, sequence (P42081 24-247): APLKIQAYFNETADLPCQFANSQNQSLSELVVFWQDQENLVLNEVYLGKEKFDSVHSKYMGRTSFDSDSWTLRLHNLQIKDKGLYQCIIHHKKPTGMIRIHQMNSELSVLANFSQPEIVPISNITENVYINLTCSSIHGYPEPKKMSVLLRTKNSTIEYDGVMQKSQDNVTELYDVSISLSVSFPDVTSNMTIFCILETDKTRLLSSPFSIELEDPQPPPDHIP

B1: EpCAM aptamer / strand a duplex (mixed)
DNA 1: CACTACAGAGGTTGCGTCTGTCCCACGTTGTCATGGGGGGTTGGCCTG
DNA 2: AGACGCAACCTCTGT
Take B1: the figures for the binding result in the data set with CD86 and with EpCAM were “no binding” and “binds”, respectively.

(Values after paper PMC9079946, “Enzyme-free ultrasensitive fluorescence detection of epithelial cell adhesion molecules based on a toehold-aided DNA recycling amplification strategy†”.)
